Results: article PMC11470070, “Structural basis for synthase activation and cellulose modification in the E. coli Type II Bcs secretion system” (Nature Communications, 2024)
Numbering of substitutions follows the chain as printed.

Columns and labels:
[1] = target: T1, BcsQ (BcsR2Q2 in the Bcs macrocomplex) (Escherichia coli, UniProt P0DP92); assay: cryo-EM structure of the complex; type: binding; details: nucleotide-driven BcsQ sandwich dimer; text says ATP-bound, but 10 uM AppCp (non-hydrolysable analogue) was in the purification buffers; 5 mM MgCl2, pH 8.0
T1 construct: full-length untagged BcsQ with His-BcsR; co-expressed Bcs macrocomplex in E. coli NiCo21(DE3), anti-FLAG purified; nucleotide-driven sandwich dimer; with Cellulose biosynthesis protein BcsR; Cellulose synthase catalytic subunit [UDP-forming]; Cellulose biosynthesis protein BcsF; Cellulose biosynthesis protein BcsG
T1 sequence (P0DP92 1-250): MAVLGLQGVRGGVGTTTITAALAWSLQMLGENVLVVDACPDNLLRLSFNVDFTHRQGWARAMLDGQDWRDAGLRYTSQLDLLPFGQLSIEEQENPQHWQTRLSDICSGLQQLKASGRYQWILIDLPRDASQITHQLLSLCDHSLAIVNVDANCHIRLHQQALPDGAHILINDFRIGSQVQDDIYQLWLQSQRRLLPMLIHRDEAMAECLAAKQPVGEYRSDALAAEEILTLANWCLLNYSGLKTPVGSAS
T1 sequence (P0ADJ3 1-62 partner): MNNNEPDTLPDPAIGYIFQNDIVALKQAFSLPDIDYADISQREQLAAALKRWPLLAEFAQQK

[2] = target: T2, BcsE (in the BcsR2Q2AB6E2F2G3 Bcs macrocomplex) (Escherichia coli, UniProt P37657); assay: cryo-EM structure of the complex; type: binding; details: intercalated c-di-GMP dimer per BcsE protomer at the REC*-GGDEF* dual I-site (R306ATD, R415TGD); 2-4 uM c-di-GMP, 5 mM MgCl2, pH 8.0
T2 construct: full-length, N-terminal Strep II tag; co-expressed Bcs macrocomplex in E. coli NiCo21(DE3), anti-FLAG purified; with Cellulose biosynthesis protein BcsF; Cellulose biosynthesis protein BcsR; Cellulose biosynthesis protein BcsQ; Cellulose synthase catalytic subunit [UDP-forming]; Cellulose biosynthesis protein BcsG

[3] = target: T3, BcsA cellulose synthase (BcsA^HA-FLAG) (E. coli, UniProt P37653 1-872); assay: cryo-EM structure; same sample and grids as a1; class of particles with a c-di-GMP-free BcsA synthase (non-saturated macrocomplex), with local refinements; details: both partners purified
T3 construct: BcsA, E. coli; amplified within the genomic region bcsRQA^HA-FLAGB from genomic DNA of the E. coli 1094 bcsA^HA-FLAG strain; domains NTD, TMD, GT, PilZ, C-terminal tail; Expressed from the whole genomic region bcsRQAB of strain 1094; One copy in the macrocomplex; source: for the BcsF variants E. coli Δbcs BL21*(DE3)
T3 sequence: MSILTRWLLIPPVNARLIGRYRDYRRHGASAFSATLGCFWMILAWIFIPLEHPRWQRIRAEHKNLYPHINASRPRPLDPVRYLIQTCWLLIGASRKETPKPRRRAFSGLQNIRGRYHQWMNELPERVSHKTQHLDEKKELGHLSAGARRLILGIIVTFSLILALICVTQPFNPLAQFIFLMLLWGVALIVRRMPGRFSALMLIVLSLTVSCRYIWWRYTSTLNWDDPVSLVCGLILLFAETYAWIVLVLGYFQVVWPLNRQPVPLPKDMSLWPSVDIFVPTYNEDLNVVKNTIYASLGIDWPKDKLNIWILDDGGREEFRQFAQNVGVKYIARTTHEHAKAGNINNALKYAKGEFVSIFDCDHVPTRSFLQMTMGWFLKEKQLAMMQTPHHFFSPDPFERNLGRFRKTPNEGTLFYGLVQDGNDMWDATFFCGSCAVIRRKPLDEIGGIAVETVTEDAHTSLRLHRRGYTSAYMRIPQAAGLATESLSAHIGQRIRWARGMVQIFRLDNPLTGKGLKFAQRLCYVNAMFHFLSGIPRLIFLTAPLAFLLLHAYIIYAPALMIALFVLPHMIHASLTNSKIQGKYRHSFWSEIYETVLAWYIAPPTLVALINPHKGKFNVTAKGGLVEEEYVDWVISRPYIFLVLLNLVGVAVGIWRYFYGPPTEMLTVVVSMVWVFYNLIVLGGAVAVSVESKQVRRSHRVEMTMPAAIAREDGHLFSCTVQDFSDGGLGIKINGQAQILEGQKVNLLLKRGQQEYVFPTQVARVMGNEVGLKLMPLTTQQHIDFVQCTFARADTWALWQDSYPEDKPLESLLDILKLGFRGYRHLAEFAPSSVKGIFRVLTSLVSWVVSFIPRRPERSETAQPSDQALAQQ

[4] = target: the molecule itself; assay: as above
[5] = target: the molecule itself; assay: cryo-EM structure; Bcs macrocomplex co-expressed in E. coli and purified on anti-FLAG gel by BcsA^HA-FLAG, 20 mM HEPES pH 8.0, 120 mM NaCl, 5 mM MgCl2, 10 μM AppCp, 4 μM c-di-GMP, 0.01% LM-NPG; class of the c-di-GMP-saturated macrocomplex with local refinements; the BcsB crown refined from all particles

Nc1ncnc2c1ncn2[C@@H]1O[C@H](COP(=O)(O)OP(=O)(O)OP(=O)(O)O)[C@@H](O)[C@H]1O [ATP]
cryo-EM structure of the complex [1]: the BcsR copies stabilize the ATP-bound BcsQ apical dimer

Nc1nc2c(ncn2[C@@H]2O[C@@H]3COP(=O)(O)O[C@H]4[C@@H](O)[C@H](n5cnc6c(=O)[nH]c(N)nc65)O[C@@H]4COP(=O)(O)O[C@H]3[C@H]2O)c(=O)[nH]1 [c-di-GMP]
cryo-EM structure of the complex [2]: An intercalated c-di-GMP dimer is found at each cis-interdomain interface of a closed BcsE

B1: BcsG pEtN-transferase (enzyme, E. coli)
chain: MTQFTQNTAMPSSLWQYWRGLSGWNFYFLVKFGLLWAGYLNFHPLLNLVFAAFLLMPLPRYSLHRLRHWIALPIGFALFWHDTWLPGPESIMSQGSQVAGFSTDYLIDLVTRFINWQMIGAIFVLLVAWLFLSQWIRITVFVVAILLWLNVLTLAGPSFSLWPAGQPTTTVTTTGGNAAATVAATGGAPVVGDMPAQTAPPTTANLNAWLNNFYNAEAKRKSTFPSSLPADAQPFELLVINICSLSWSDIEAAGLMSHPLWSHFDIEFKNFNSATSYSGPAAIRLLRASCGQTSHTNLYQPANNDCYLFDNLSKLGFTQHLMMGHNGQFGGFLKEVRENGGMQSELMDQTNLPVILLGFDGSPVYDDTAVLNRWLDVTEKDKNSRSATFYNTLPLHDGNHYPGVSKTADYKARAQKFFDELDAFFTELEKSGRKVMVVVVPEHGGALKGDRMQVSGLRDIPSPSITDVPVGVKFFGMKAPHQGAPIVIEQPSSFLAISDLVVRVLDGKIFTEDNVDWKKLTSGL
notes: BcsG, E. coli; amplified within the genomic region bcsEFG; N-terminal domain of 5 transmembrane helices, 48-residue linker, C-terminal pEtN-transferase domain (the last not resolved in the maps); Three copies in the macrocomplex; also called BcsG^NTD; BcsG3
stoichiometry N [3]: 3 | stoichiometry N [4]: 3

B2: BcsQ (natural protein, E. coli)
chain: T1 sequence (P0DP92 1-250) with D172N, A249K
notes: BcsQ, E. coli; amplified within the genomic region bcsRQA^HA-FLAGB of E. coli 1094; the strain used is 1094; also called SIMIBI family NTPase BcsQ
stoichiometry N [5]: 2

B3: BcsB co-polymerase (natural protein, E. coli, UniProt P37652 26-779, looked up)
chain: TPATQPLINAEPAVAAQTEQNPQVGQVMPGVQGADAPVVAQNGPSRDVKLTFAQIAPPPGSMVLRGINPNGSIEFGMRSDEVVTKAMLNLEYTPSPSLLPVQSQLKVYLNDELMGVLPVTKEQLGKKTLAQMPINPLFISDFNRVRLEFVGHYQDVCEKPASTTLWLDVGRSSGLDLTYQTLNVKNDLSHFPVPFFDPSDNRTNTLPMVFAGAPDVGLQQASAIVASWFGSRSGWRGQNFPVLYNQLPDRNAIVFATNDKRPDFLRDHPAVKAPVIEMINHPQNPYVKLLVVFGRDDKDLLQAAKGIAQGNILFRGESVVVNEVKPLLPRKPYDAPNWVRTDRPVTFGELKTYEEQLQSSGLEPAAINVSLNLPPDLYLMRSTGIDMDINYRYTMPPVKDSSRMDISLNNQFLQSFNLSSKQEANRLLLRIPVLQGLLDGKTDVSIPALKLGATNQLRFDFEYMNPMPGGSVDNCITFQPVQNHVVIGDDSTIDFSKYYHFIPMPDLRAFANAGFPFSRMADLSQTITVMPKAPNEAQMETLLNTVGFIGAQTGFPAINLTVTDDGSTIQGKDADIMIIGGIPDKLKDDKQIDLLVQATESWVKTPMRQTPFPGIVPDESDRAAETRSTLTSSGAMAAVIGFQSPYNDQRSVIALLADSPRGYEMLNDAVNDSGKRATMFGSVAVIRESGINSLRVGDVYYVGHLPWFERVWYALANHPILLAVLAAISVILLAWVLWRLLRIISRRRLNPDNE
notes: BcsB, E. coli; amplified within the genomic region bcsRQA^HA-FLAGB of E. coli 1094; periplasmic modules CBD1-FD1-CBD2-FD2 and a C-terminal tail-anchor (TA); Six copies in the macrocomplex; the strain used is 1094; also called BcsB^TA (tail-anchor); periplasmic crown
stoichiometry N [5]: 6

B4: BcsF (natural protein, E. coli)
chain: MMTISDIIEIIVVCALIFFPLGYLARHSLRRIRDTLRLFFAKPRYVKPAGTLRRTEKARATKK
notes: BcsF, E. coli; amplified within the genomic region bcsEFG; single transmembrane helix, amphipathic helical extension and cytosolic C-terminal tail; Two copies in the macrocomplex; also called inner membrane polypeptide BcsF; source: for the BcsF variants experiment E. coli Δbcs BL21*(DE3)
stoichiometry N [4]: 2
